# Source: patent publication US20240279310A1 (ALPINE IMMUNE SCIENCES, published 2024)
# Where two headings read alike, the source gives them in different places.
# T1: recombinant human APRIL (Tonbo Biosciences) (human, UniProt O75888 105-250, limits assumed)
# T1 sequence (looked up): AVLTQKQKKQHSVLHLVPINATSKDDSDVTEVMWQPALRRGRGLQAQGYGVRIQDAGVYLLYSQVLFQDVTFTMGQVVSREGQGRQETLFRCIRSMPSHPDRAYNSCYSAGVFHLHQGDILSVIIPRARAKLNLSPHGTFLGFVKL
# T2: rat APRIL (rat, UniProt A0A8J8XC20 96-241)
# T2 sequence: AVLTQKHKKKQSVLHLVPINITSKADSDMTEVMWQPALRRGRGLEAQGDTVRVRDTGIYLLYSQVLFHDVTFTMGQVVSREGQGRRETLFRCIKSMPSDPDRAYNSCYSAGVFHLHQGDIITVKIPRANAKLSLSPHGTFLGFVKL
# T3: recombinant mouse APRIL (ProSci Incorporated) (mouse, UniProt Q9D777 96-241, limits assumed)
# T3 sequence (looked up): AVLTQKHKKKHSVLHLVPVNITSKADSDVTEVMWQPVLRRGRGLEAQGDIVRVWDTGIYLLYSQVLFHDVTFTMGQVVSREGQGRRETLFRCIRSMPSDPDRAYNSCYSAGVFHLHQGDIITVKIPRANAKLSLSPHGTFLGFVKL
# Legend:
# Assay in all cases: cell-based or functional assay
# [1] = molecular target: T1, recombinant human APRIL (Tonbo …)
# [2] = molecular target: T4, recombinant human BAFF (BioLegend) (human, UniProt Q9Y275 134-285)
# [3] = molecular target: T1, recombinant human APRIL (Tonbo …); remark: listed apart in the source
# [4] = molecular target: T4, recombinant human BAFF (BioLegend); remark: listed apart in the source
# [5] = molecular target: T5, recombinant mouse BAFF (R & D Systems) (mouse, UniProt Q9WU72 127-309)
# [6] = molecular target: T1, recombinant human APRIL (Tonbo …); remark: listed apart in the source
# [7] = molecular target: T4, recombinant human BAFF (BioLegend); remark: listed apart in the source
# [8] = molecular target: T1, recombinant human APRIL (Tonbo …); remark: listed apart in the source
# [9] = molecular target: T4, recombinant human BAFF (BioLegend); remark: listed apart in the source
# [10] = molecular target: T1, recombinant human APRIL (Tonbo …); remark: listed apart in the source
# [11] = molecular target: T4, recombinant human BAFF (BioLegend); remark: listed apart in the source
# [12] = molecular target: T1, recombinant human APRIL (Tonbo …); remark: listed apart in the source
# [13] = molecular target: T4, recombinant human BAFF (BioLegend); remark: listed apart in the source
# cynomolgus monkey APRIL = cynomolgus monkey APRIL (cynomolgus monkey)
# rat APRIL = molecular target: T2, rat APRIL
# rat BAFF = rat BAFF (rat)
# [14] = molecular target: T5, recombinant mouse BAFF (R & D Systems); remark: listed apart in the source
# [15] = molecular target: T1, recombinant human APRIL (Tonbo …); remark: listed apart in the source
# [16] = molecular target: T3, recombinant mouse APRIL (ProSci …)
# [17] = molecular target: T4, recombinant human BAFF (BioLegend); remark: listed apart in the source
# cynomolgus monkey BAFF = cynomolgus monkey BAFF (cynomolgus monkey, UniProt A0A2K5V2X4 134-285)
# [18] = molecular target: T4, recombinant human BAFF (BioLegend); remark: listed apart in the source
# [19] = molecular target: T3, recombinant mouse APRIL (ProSci …); remark: listed apart in the source
# T5 sequence (Q9WU72 127-309 limits assumed): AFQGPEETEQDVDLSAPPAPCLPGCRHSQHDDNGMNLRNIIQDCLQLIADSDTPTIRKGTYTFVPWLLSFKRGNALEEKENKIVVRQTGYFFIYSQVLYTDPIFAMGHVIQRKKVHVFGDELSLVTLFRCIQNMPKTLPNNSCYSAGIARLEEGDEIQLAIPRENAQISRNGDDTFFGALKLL
IC50 (read off the curve) [2] [nM],IC50 (read off the curve) [5] [nM],IC50 (read off the curve) [7] [nM],APRIL IC50 (pM) [8] [pM],APRIL IC50 (Δ WT) [8] [ratio],BAFF IC50 (pM) [9] [pM],BAFF IC50 (Δ WT) [9] [ratio],IC50 (nM) APRIL [10] [nM],IC50 APRIL (Δ TACI 30-110-Fc) [10] [ratio],IC50 (nM) BAFF [11] [nM],IC50 BAFF (Δ TACI 30-110-Fc) [11] [ratio],Binder,further results
~2,,,,,,,,,,,7 TACI CRD1/CRD2-Fc (Fc fusion) TACI vTD-linker-Fc chain: VAMRSCPEEQYWDPLLGTCMSCKTICNHQSQRTCAAFCRSLSCRKEQGKFYDHLLRDCISCASICGQHPKQCDYFCENKLRSGSGGGGSEPKSSDKTHTCPPCPAPEAEGAPSVFLFPPKPKDTLMISRTPEVTCVVVDVSHEDPEVKFNWYVDGVEVHNAKTKPREEQYNSTYRVVSVLTVLHQDWLNGKEYKCKVSNKALPAPIEKTISKAKGQPREPQVYTLPPSRDELTKNQVSLTCLVKGFYPSDIAVEWESNGQPENNYKTTPPVLDSDGSFFLYSKLTVDKSRWQQGNVFSCSVMHEALHNHYTQKSLSLSPG,IC50 (read off the curve) [1]: ~3 nM
,~1,~2,9210,0.75,1550,0.84,179,0.05,1220,0.21,"26 TACI CRD2-Fc (TACI vTD SEQ ID NO:26, K77E/F78Y/Y102D; Fc fusion SEQ ID NO: 167) (Fc fusion) SLSCRKEQGEYYDHLLRDCISCASICGQHPKQCADFCENKLRSGSGGGGSEPKSSDKTHTCPPCPAPEAEGAPSVFLFPPKPKDTLMISRTPEVTCVVVDVSHEDPEVKFNWYVDGVEVHNAKTKPREEQYNSTYRVVSVLTVLHQDWLNGKEYKCKVSNKALPAPIEKTISKAKGQPREPQVYTLPPSRDELTKNQVSLTCLVKGFYPSDIAVEWESNGQPENNYKTTPPVLDSDGSFFLYSKLTVDKSRWQQGNVFSCSVMHEALHNHYTQKSLSLSPG","IC50 (nM) APRIL [3]: 214 nM; IC50 APRIL (Δ TACI 30-110) [3]: 0.05 ratio; IC50 (nM) BAFF [4]: 1270 nM; IC50 BAFF (Δ TACI 30-110) [4]: 0.28 ratio; IC50 (read off the curve) [6]: ~0.6 nM; IC50 (pM) APRIL [12]: 1760 pM; IC50 (pM) BAFF [13]: 1340 pM; APRIL IC50 (nM), signal inhibition in Jurkat/NF-κB/TACI cells (cynomolgus monkey APRIL): 3.3 nM; APRIL IC50 (nM), signal inhibition in Jurkat/NF-κB/TACI cells (rat APRIL): 22.7 nM; BAFF IC50 (nM), signal inhibition in Jurkat/NF-κB/TACI cells (rat BAFF): 3.8 nM; BAFF IC50 (nM), signal inhibition in Jurkat/NF-κB/TACI cells [14]: 15.2 nM; APRIL IC50 (nM), signal inhibition in Jurkat/NF-κB/TACI cells [15]: 3.4 nM; APRIL IC50 (nM), signal inhibition in Jurkat/NF-κB/TACI cells [16]: 24.5 nM; BAFF IC50 (nM), signal inhibition in Jurkat/NF-κB/TACI cells [17]: 2.8 nM; BAFF IC50 (nM), signal inhibition in Jurkat/NF-κB/TACI cells (cynomolgus monkey BAFF): 1.9 nM; IC50 value [18]: 0.078 µg/mL"
~2,~5,~3,12300,1,1850,1,369,0.1,1330,0.23,"13 TACI CRD2-Fc, WT TACI (68-110)-Fc (TACI 68-110, SEQ ID NO: 13, TACI-Fc SEQ ID NO: 171) (Fc fusion) SLSCRKEQGKFYDHLLRDCISCASICGQHPKQCAYFCENKLRSGSGGGGSEPKSSDKTHTCPPCPAPEAEGAPSVFLFPPKPKDTLMISRTPEVTCVVVDVSHEDPEVKFNWYVDGVEVHNAKTKPREEQYNSTYRVVSVLTVLHQDWLNGKEYKCKVSNKALPAPIEKTISKAKGQPREPQVYTLPPSRDELTKNQVSLTCLVKGFYPSDIAVEWESNGQPENNYKTTPPVLDSDGSFFLYSKLTVDKSRWQQGNVFSCSVMHEALHNHYTQKSLSLSPG",IC50 (read off the curve) [19]: ~0.7 nM
